From paper PMC4180279 (Biochemistry, 2014)

Columns and labels:
[1] = target: Calmodulin (CaM) expressed from pET-15b (UniProt P0DP23 1-149); test: NMR titration; 1H-15N HSQC of [15N]NCS-1 (0.8 mM) with PQIQ peptide, then equimolar unlabelled CaM/Ca2+ added to the preformed complex; 50 mM Tris pH 6.5, 50 mM NaCl, 5 mM CaCl2, 300 K; settings: both partners purified
[2] = target: Neuronal calcium sensor-1 (NCS-1), N-terminal His tag removed with TEV protease (UniProt P62166 1-190); test: other fluorescence titration; intrinsic tryptophan fluorescence of 1 μM NCS-1 (excitation 280 nm, emission 290-410 nm), PQIQ peptide added stepwise; 50 mM Tris pH 7.5, 50 mM NaCl, 5 mM CaCl2; room temperature; logistic fit; triplicate; settings: both partners purified
Chain of Neuronal calcium sensor-1 (NCS-1), N-terminal His tag removed with TEV protease (P62166 whole entry): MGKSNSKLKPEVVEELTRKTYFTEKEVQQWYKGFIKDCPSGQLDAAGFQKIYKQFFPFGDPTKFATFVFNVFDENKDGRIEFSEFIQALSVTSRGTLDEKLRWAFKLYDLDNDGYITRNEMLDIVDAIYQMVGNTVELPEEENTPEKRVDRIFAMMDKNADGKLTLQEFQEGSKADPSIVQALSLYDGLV

Question: Does TVGKIYAAMMIMEYYRQSKAKKLQAMR [PQIQ peptide, synthetic P/Q peptide corresponding to residues 1903-1929 of the human P/Q receptor] bind [1]?
Answer: binds

Question: And the EC50 [2]?
Answer: 1040 ± 70 nM
